This is an account of results in patent US7648964B2, “Use of lacritin in promoting ocular cell survival” (University of Virginia Patent Foundation, priority 2004, dated 2010).

“Also recorded” adds a separate entry of the source.

Experiment [1] concerns NFATC1. Nature of the experiment: NFATC1 translocation in HSG cells (immunofluorescence). Format: cell-based, human. The note with it: for NFATC1 translocation: HSG and corneal epithelial cells. An excerpt:
In order to dissect the molecular pathways leading to the cell survival by lacritin, protein kinases and transcriptional factors were studied by Western blotting and immunofluorescence microscopy. […] On the other hand, there were increased activities of transcriptional factors such as nuclear factor of activated T-cells (NFAT) and NF-kappaB. In FIG. 4, translocation of PKC alpha and NFAT was detected by immunofluorescence coupled with confocal microscopic imaging. In resting HSG cells (left three images), PKC alpha distributes mainly in cytosol and membrane. Similarly, NFATc1 was also found to localize largely in cytosol. Cellular co-location of PKC alpha and NFATc1 is apparent upon merging the two immunofluorescent images, as the merged cy3 and FITC labels produce distinctive yellow color.
Images were acquired at 2-3 s intervals using LaserSharp2000 software (Bio-Rad) and store on disc for later analysis. For translocation assays, HSG cells […] phorbol 12-myristate 13-acetate, […], then washed with phosphate-buffered saline, formaldehyde-fixed, blocked with phosphate-buffered saline containing 1% bovine serum albumin and 10% goat serum, incubated with anti-PKCα (C-20) or anti-NFATC1 (mab 7A6) (both from Santa Cruz Biotechnology Inc.; Santa Cruz, Calif.) followed by secondary Cy3-, FITC- or Alexa488-labeled antibodies and confocal microscopic visualization (Bio-Rad Radiance2100).

Experiment [2] relates to human corneal epithelial (HCE) cells. Put plainly: 3H-thymidine uptake mitogenesis assay. Format: cell-based. On the procedure:
For phosphotyrosine blotting and mitogenesis assays, cells in serum-containing media were seeded overnight in 24-well plates at a density of 0.5×10^5 cells/mm^2 corresponding to 20-30% confluency after cell attachment, incubated in serum-free media without supplements for 24 h (phosphotyrosine) or washed with serum-free media without supplements three times (mitogenesis) and incubated with lacritin (1-1000 nM), or positive controls EGF (1.6 nM) and 10% fetal bovine serum, or negative controls bovine serum albumin or no additive in serum-free media without supplements for the indicated times (phosphotyrosine) or 30 h (mitogenesis). […] After washing, bound antibodies were detected with peroxidase-labeled secondary antibody and ECL. […] Incorporation was stopped with ice-cold phosphate buffered saline and followed by addition of cold and then room temperature trichloracetic acid (10%) for 10 min each, washing of cells with phosphate buffered saline, solubilization with 1 N sodium hydroxide, neutralization with 1 N hydrochloric acid, addition of scintillation fluid and then quantitation in a scintillation counter. […] Seventy-two hours post-transfection, mitogenesis was assessed by co-addition of 10 […] lacritin and [^3H]-thymidine (2 mCi/ml) (Amersham, Piscataway N.J.) for 24 hrs. […]

The subject of experiment [3] is human salivary ductal (HSG) cells. Nature of the experiment: 3H-thymidine uptake mitogenesis assay. Format: cell-based. As to the method:
For phosphotyrosine blotting and mitogenesis assays, cells in serum-containing media were seeded overnight in 24-well plates at a density of 0.5×10^5 cells/mm^2 corresponding to 20-30% confluency after cell attachment, incubated in serum-free media without supplements for 24 h (phosphotyrosine) or washed with serum-free media without supplements three times (mitogenesis) and incubated with lacritin (1-1000 nM), or positive controls EGF (1.6 nM) and 10% fetal bovine serum, or negative controls bovine serum albumin or no additive in serum-free media without supplements for the indicated times (phosphotyrosine) or 30 h (mitogenesis). For phosphotyrosine assays, cells were extracted in 1% NP40 containing sodium vanadate (2 mg/ml), DTT (5 mg/ml), protease inhibitors, 50 mM HEPES, 100 mM NaCl, and 2 mM EDTA; then separated by 10% SDS PAGE, transferred and blotted. The following antibodies (Cell Signaling Technology, Beverly Mass.) were tested: antiphosphotyrosine antibody (P-Tyr-100), anti-phospho-PKC αβII, anti-PKCα, anti-phospho-PKCδ, anti-phospho-PKC (pan), anti-p44/42 MAPK, anti-phospho-Raf, anti-phospho-SAPK/JNK, anti-phospho-p38 Map kinase, anti-phospho-Raf, anti-phospho-Akt, anti-phospho-CaMKII, anti-phospho-MARCKS, or anti-tubulin (loading control). After washing, bound antibodies were detected with peroxidase-labeled secondary antibody and ECL. With the exception of at least nine proteins in the P-Tyr-100 blot (FIG. 1), none of the effectors tested above appeared to be phospho-activated during lacritin signaling (not shown). For mitogenesis (Hussaini et al., '00), [^3H]-thymidine (2 mCi/ml) was added for the next 6 h. Incorporation was stopped with ice-cold phosphate buffered saline and followed by addition of cold and then room temperature trichloracetic acid (10%) for 10 min each, washing of cells with phosphate buffered saline, solubilization with 1 N sodium hydroxide, neutralization with 1 N hydrochloric acid, addition of scintillation fluid and then quantitation in a scintillation counter. To deplete PKCα in HSG cells, a pool of four PKCα-specific siRNAs (100 nM) were transfected via LipofectAMINE 2000 in Opti-MEMI Reduced Serum Medium (Invitrogen, Grand Island N.Y.) without serum and antibiotics according to manufacturer's instructions. Each of the four siRNAs was also individually transfected. In negative controls, cells were transfected with a pool of four lamin-specific siRNAs (Upstate LLC, Charlottesville Va.; Dharmacon Inc, Lafayette Colo.). Seventy-two hours post-transfection, mitogenesis was assessed by co-addition of 10 […] lacritin and [^3H]-thymidine (2 mCi/ml) (Amersham, Piscataway N.J.) for 24 hrs. PKCα depletion was confirmed by Western blotting.

In experiment [4] the target is T1, syndecan-1 (Homo sapiens, UniProt P18827).
T1 construct: expressed in transfected cells; host or cells: HEK293 (syndecan-1); E. coli ER2566 (lacritin-intein)
T1 sequence (P18827 23-310): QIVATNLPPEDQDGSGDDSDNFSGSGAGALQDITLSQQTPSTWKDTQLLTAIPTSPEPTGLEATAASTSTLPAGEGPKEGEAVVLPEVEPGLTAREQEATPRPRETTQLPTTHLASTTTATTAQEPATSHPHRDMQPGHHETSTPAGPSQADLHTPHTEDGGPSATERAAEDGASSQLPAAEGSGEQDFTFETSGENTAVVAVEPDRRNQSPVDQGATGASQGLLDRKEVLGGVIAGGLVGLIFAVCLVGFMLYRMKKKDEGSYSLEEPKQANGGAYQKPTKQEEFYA
Nature of the experiment: Competitive binding assay of lacritin-syndecan-1 binding. Particulars: competitive binding assays. An excerpt: Biotinylated cell surface proteins were applied to lacritin affinity columns. After washing extensively in physiological salt-containing buffer, bound protein was eluted with 1 M NaCl, and identified with avidin-peroxidase using an ECL blot method. In controls, columns lacking lacritin were used. […] 293T cells stably transfected with human syndecan-2 or −4 were kindly provided by Dr. Atsushi Utani (Chiba University). A series of lacritin C-terminal and N-terminal deletion mutants were generated. Pull down binding assays involved incubation of intein-tagged lacritin or intein deletion mutants with lysates of untransfected or transfected cells followed by precipitation and SDS PAGE. Immunolocalization of syndecan-1 in human lacrimal glands was performed using anti-human syndecan-1 antibody (CD138).
The first of approximately four bands repeatedly eluted from lacritin affinity column was determined by sequencing to be syndecan-1. In pull-down assays, lacritin bound mammalian syndecan-1, but not syndecan-2 or 4. The binding appeared to be independent of heparan sulfate side chains, in keeping with lack of lacritin binding to heparin (previously known). Deletion of lacritin's C-terminal 25 but not N-terminal 5, 10, or 24 amino acids eliminated binding. […] Syndecan-1 was detected in ‘near apical’ and basolateral plasma membranes in human lacrimal gland.

With `Cn1c2ccccc2c2c3c(c4c5ccccc5n(CCC#N)c4c21)CNC3=O` [Go 6976], the “effect on lacritin-dependent NFATC1 translocation” value in experiment [1] (cyclosporine 1 μM, nifedipine 10 μM) is “inhibited”.

B1: N-24: deletion mutant comprising a deletion of the 24 amino terminal amino acids of lacritin (protein)
chain: DSTGADPAQEAGTSKPNEEISGPAEPASPPETTTTAQETSAAAVQGTAKVTSSRQELNPLKSIVEKSILLTEQALAKAGKGMHGGVPGGKQFIENGSEFAQKLLKKFSLLKPWA
modifications: homo sapiens
notes: deletion mutant comprising a deletion of the 24 amino terminal amino acids of lacritin
Take B1: the NFATC1 translocation result in experiment [1] is “translocates into the nucleus”. In addition, the mitogenesis result in experiment [2] is “promote cell proliferation”. In addition, the “mitogenic activity of deletion constructs” value in experiment [3] (10 nM, compared to intact lacritin) is “active”. The inhibition of binding result in experiment [4] is “inhibited binding”.

B2: lacritin: recombinant human lacritin from E. coli; mature 119 residue fragment (SEQ ID NO:10) of native lacritin SEQ ID NO:4 (protein, listed as Homo sapiens)
chain: EDASSDSTGADPAQEAGTSKPNEEISGPAEPASPPETTTTAQETSAAAVQGTAKVTSSRQELNPLKSIVEKSILLTEQALAKAGKGMHGGVPGGKQFIENGSEFAQKLLKKFSLLKPWA
As for B2, the NFATC1 translocation result in experiment [1] is listed as “translocates into the nucleus”. In addition, in experiment [1] (lacritin treatment for 1 hour, immunofluorescence), the NFAT localization result is given as “translocates into nuclear compartment”. The mitogenesis entry in experiment [2] was “mitogenic; also recorded: promote cell proliferation”. The “proliferation in nominally calcium-free medium” value in experiment [3] is listed as “proliferated in a bell-shaped lacritin dose-dependent manner”. Moreover, the “time to detectable 3H-thymidine uptake” value in experiment [3] (not shown) is recorded as “Within two hours”. Moreover, the “level of proliferation at optimal dose” value in experiment [3] (vs 10% FBS positive control) is “matching the FBS positive control”. Besides, the inhibition of binding result in experiment [4] is “inhibited binding”.
